Source: publication PMC9945446

Biological target: DNMT1 (human) (UniProt P26358)
Assay: EMSA
Conditions: 50 mM Tris-HCl pH 7.5, 100 mM KCl (or LiCl), 2.5 mM MgCl2, 0.1 mM ZnCl2, 2 mM BME, 0.05% NP40, 5% glycerol, 0.1 mg/mL BSA, 0.1 mg/mL yeast tRNA, 30 C 1 h

Chain of DNMT1 (human) (P26358 whole entry): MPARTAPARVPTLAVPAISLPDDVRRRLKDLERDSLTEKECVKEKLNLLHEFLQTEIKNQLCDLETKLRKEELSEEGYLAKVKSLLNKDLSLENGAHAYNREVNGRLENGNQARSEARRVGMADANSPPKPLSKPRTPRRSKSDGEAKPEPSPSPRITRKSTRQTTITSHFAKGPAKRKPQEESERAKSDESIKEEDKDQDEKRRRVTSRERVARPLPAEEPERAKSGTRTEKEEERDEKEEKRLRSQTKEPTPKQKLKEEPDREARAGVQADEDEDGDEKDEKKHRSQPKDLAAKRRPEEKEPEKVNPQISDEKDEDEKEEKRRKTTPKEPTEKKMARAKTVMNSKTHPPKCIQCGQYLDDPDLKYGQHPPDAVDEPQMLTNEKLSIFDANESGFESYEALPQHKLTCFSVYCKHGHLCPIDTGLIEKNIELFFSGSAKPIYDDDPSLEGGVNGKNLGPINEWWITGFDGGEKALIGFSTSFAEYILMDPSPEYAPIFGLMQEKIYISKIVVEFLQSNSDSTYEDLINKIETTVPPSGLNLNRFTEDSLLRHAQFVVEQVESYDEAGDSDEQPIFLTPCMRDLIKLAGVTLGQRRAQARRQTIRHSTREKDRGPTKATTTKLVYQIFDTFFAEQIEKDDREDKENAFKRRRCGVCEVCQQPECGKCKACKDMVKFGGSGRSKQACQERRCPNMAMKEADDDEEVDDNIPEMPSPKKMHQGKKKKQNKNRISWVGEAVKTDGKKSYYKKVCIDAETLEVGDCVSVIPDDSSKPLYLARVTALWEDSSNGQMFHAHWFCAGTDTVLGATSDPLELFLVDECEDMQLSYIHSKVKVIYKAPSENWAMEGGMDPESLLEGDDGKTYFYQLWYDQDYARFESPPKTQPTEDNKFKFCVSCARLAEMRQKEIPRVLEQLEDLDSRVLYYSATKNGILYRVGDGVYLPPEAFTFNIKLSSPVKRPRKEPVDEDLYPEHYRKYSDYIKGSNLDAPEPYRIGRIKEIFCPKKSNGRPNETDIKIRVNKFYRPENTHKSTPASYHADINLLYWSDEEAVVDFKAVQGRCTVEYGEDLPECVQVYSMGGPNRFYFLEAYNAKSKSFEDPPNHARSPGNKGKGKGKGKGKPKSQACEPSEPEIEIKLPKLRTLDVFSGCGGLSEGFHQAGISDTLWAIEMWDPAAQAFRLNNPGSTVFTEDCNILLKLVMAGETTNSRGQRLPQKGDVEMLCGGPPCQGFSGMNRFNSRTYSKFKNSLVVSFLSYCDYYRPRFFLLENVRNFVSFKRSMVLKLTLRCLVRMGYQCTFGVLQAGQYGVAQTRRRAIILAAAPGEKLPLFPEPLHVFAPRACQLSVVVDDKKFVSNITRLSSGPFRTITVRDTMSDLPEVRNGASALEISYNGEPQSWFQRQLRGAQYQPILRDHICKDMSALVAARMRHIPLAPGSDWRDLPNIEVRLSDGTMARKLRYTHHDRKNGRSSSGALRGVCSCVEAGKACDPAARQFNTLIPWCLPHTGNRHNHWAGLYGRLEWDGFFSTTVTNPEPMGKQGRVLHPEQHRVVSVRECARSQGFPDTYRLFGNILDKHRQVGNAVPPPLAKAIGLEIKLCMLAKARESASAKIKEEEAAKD

Row | Sequence | binding signal (fold weaker than WT 3'UTR) | Kd
1 | UUCCACCCUCCCACCACCCCUACUUCCAGCACCAGGAAUCCCCAACACACACCAACAUCACAUUUUUAACACAUCAAUCUACCCACUCACACACACAACACACAACACUUACGGCCUCAGCCAACACAAAGCCAUCACACAAGACUCGCUUAUCAACUAACAAUUUAACGAUCAAAUCACACAACACUUUACGCAUUCCAGAUUUUAAAAACUUUUUAUUACACAUUAUAUCAAAUCUACCACCAUACAAGCAGAAAUUAAGACUUUACAUAACUUUUAUACAUUACAAUAUUUCUUCAAAUAAAUCUCUCCUAUAAACCA [DNMT1 3'UTR GU mutant (all GU/UG to AC/CA)] | 2 | 
2 | UUCUGCCCUCCCGUCACCCCUGUUUCUGGCACCAGGAAUCCCCAACAUGCACUGACACCACACUUUUAACAUGUCAAUCUGUCCGUUCACACACACAACACACAACACCCACAGCCUUGGCUGACAUGAAGCCACCACACAAGGUUCGCUUAUCAACUAAUGAUUUAGUGAUCAAAUUGUGCAGUACUUUGUGCAUUCUGGAUUUUAAAAGUUUUUUAUUAUGCAUUAUAUCAAAUCUACCACUGUAUGAGUGGAAAUUAAGACUUUAUGUAGUUUUUAUAUGUUGUAAUAUUUCUUCAAAUAAAUCUCUCCUAUAAACCA | 3 | 
3 | UUCUGCCCUCCCGUCACCCCUGUUUCUGGCACCAGGAAUCCCCAACAUGCACUGAUGUUGUGUUUUUAACAUGUCAAUCUGUCCGUUCACAUGUGUGGUACAUGGUGUUUGUGGCCUUGGCUGACAUGAAGCUGUUGUGUGAGGUUCGCUUAUCAACUAAUGAUUUAGUGAUCAAAUUGUGCAGUACUUUGUGCAUUCUGGAUUUUAAAAGUUUUUUAUUAUGCAUUAUAUCAAAUCUACCACUGUAUGAGUGGAAAUUAAGACUUUAUGUAGUUUUUAUAUGUUGUAAUAUUUCUUCAAAUAAAUCUCUCCUAUAAACCA [DNMT1 3'UTR WT] |  | 69 nM
